The text below walks through data of the supplement of paper PMC10126150.

The subject of the data set is ATP. The data set can be described thus: switch fluorescence ratio, 500 uM ATP over buffer (Cy3 cluster intensity, sum of 5 cycles each) (fold (ratio)); higher = stronger signal-on switching upon ATP binding; sequences stand for … in TCGTCGGCAGCGTCAGATGTGTATAAGAGACAGTTTTTTTTTTTTTTTTTTTTTTTTT…TC. The settings on record: aptamer strand: ATP DNA aptamer (quencher-CACCTGGGGGAGTATTGCGGAGGAAGG + anchor), 100 nM annealed; ATP concentration: 500 uM. A digest of the protocol:
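The quencher-labelled ATP aptamer, at 100 nM, was annealed to Cy3-labelled switching-strand clusters on a modified Illumina MiSeq flow-cell. The clusters were imaged in selection buffer, then after 15 min with 500 uM ATP at 22 °C, and this buffer/ATP cycle ran five times with NaOH stripping and re-annealing between runs. Per-cluster fluorescence ratios, summed target-cycle over summed buffer-cycle Cy3 intensity, were averaged per switch-domain sequence. Clusters outside 100-1000 RFU were excluded.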

± gives the standard deviation of the averaged measurements.
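Further: ATP exposure 15 min at 22 °C before imaging.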

For TAAACTGGTT, the switch fluorescence ratio is 0.999 ± 0.029.

For the sequence TAAACTTTTG, the switch fluorescence ratio is 0.9786 ± 0.0039.

As for TAAAGAAAGG, the switch fluorescence ratio is 1.02 ± 0.013.

TAAAGACAGC: the switch fluorescence ratio worked out at 1.006 ± 0.0073.

For the sequence TAAAGAGATG, the switch fluorescence ratio came to 1.011 ± 0.0072.

TAAAGAGGTA: the switch fluorescence ratio was 1.02 ± 0.013.

For TAAAGCGGGC, the switch fluorescence ratio came out at 1.05 ± 0.043.

As for TAAAGCTGAT, the switch fluorescence ratio was 1.01 ± 0.012.

For the sequence TAAAGGCTGG, the switch fluorescence ratio worked out at 1.015 ± 0.0052.

As to TAAAGGGAAG, the switch fluorescence ratio worked out at 1.01 ± 0.021.

As for TAAAGGGCT, the switch fluorescence ratio was 1.001 ± 0.0055.

TAAAGGTCGT: the switch fluorescence ratio was 0.97444 ± 0.00071.

Consider TAAAGGTTGC, for which the switch fluorescence ratio stood at 0.984 ± 0.02.

As for TAAAGTGCGG, the switch fluorescence ratio was 1.03 ± 0.058.

Turning to TAAAGTTAAA, the switch fluorescence ratio amounted to 1 ± 0.048.

On to TAAAGTTTGC, for which the switch fluorescence ratio is 0.995 ± 0.017.

Take TAAAGTTTGT: the switch fluorescence ratio was 0.958 ± 0.026.

Take TAAAGTTTTG: the switch fluorescence ratio turned out to be 0.995 ± 0.017.

Take TAAATAAATG: the switch fluorescence ratio is 0.976 ± 0.048.

For the sequence TAAATACGGT, the switch fluorescence ratio came out at 1.03 ± 0.062.

As to TAAATACTCA, the switch fluorescence ratio is 1.16 ± 0.083.

In the case of TAAATATTAG, the switch fluorescence ratio came to 0.9837 ± 0.0031.

For the sequence TAAATATTGG, the switch fluorescence ratio came out at 1.04 ± 0.034.

TAAATATTTT: the switch fluorescence ratio came to 1.08 ± 0.14.

Consider TAAATCACGC, for which the switch fluorescence ratio stood at 1.23 ± 0.24.

Consider TAAATCCAGG, for which the switch fluorescence ratio was determined as 1.24 ± 0.028.

In the case of TAAATCCTGG, the switch fluorescence ratio turned out to be 0.961 ± 0.023.

Regarding TAAATCGGGG, the switch fluorescence ratio came out at 0.995 ± 0.049.

For TAAATGAGGT, the switch fluorescence ratio amounted to 0.998 ± 0.015.

On to TAAATGATAT, for which the switch fluorescence ratio worked out at 0.984 ± 0.02.

On to TAAATGGGCT, for which the switch fluorescence ratio is 1.04 ± 0.025.

As for TAAATGGTTG, the switch fluorescence ratio was 0.9863 ± 0.0094.

Take TAAATGTATG: the switch fluorescence ratio is 1.01 ± 0.041.

For TAAATGTCTT, the switch fluorescence ratio amounted to 1.025 ± 0.0077.

Take TAAATGTGGG: the switch fluorescence ratio was 1 ± 0.069.

Consider TAAATGTTGT, for which the switch fluorescence ratio came out at 0.9869 ± 0.0055.

As to TAAATTCCGA, the switch fluorescence ratio came out at 1.07 ± 0.038.

Take TAAATTGCG: the switch fluorescence ratio is 0.9991 ± 0.0013.

For TAAATTTTCA, the switch fluorescence ratio turned out to be 1.03 ± 0.031.

Take TAACAATTTT: the switch fluorescence ratio came to 1.01 ± 0.019.

Turning to TAACACGGTA, the switch fluorescence ratio was determined as 1.16 ± 0.0035.

For the sequence TAACAGCTGT, the switch fluorescence ratio stood at 1.04 ± 0.041.

As to TAACAGTAAC, the switch fluorescence ratio is 1.08 ± 0.05.

For the sequence TAACAGTGAG, the switch fluorescence ratio was found to be 0.964 ± 0.021.

As for TAACATACAT, the switch fluorescence ratio turned out to be 1.18 ± 0.11.

For TAACATTTAT, the switch fluorescence ratio was determined as 0.979 ± 0.027.

On to TAACATTTTT, for which the switch fluorescence ratio is 1 ± 0.022.

Regarding TAACCGGGGG, the switch fluorescence ratio was determined as 1.67 ± 1.2.

As for TAACCTGCCC, the switch fluorescence ratio was 2.26 ± 0.12.

Regarding TAACGCGGAC, the switch fluorescence ratio is 2.5233 ± 3.9e-05.

For TAACGGGGGG, the switch fluorescence ratio stood at 0.999 ± 0.045.

Take TAACGGGTTT: the switch fluorescence ratio amounted to 1.02 ± 0.015.

In the case of TAACGGTCAG, the switch fluorescence ratio turned out to be 1.025 ± 0.0095.

As to TAACGGTGTA, the switch fluorescence ratio is 1.02 ± 0.026.

On to TAACGGTTAT, for which the switch fluorescence ratio was 1.01 ± 0.024.

TAACGGTTG: the switch fluorescence ratio worked out at 0.98 ± 0.017.

On to TAACTAAACT, for which the switch fluorescence ratio is 1.12 ± 0.08.

On to TAACTGACGG, for which the switch fluorescence ratio worked out at 1.268 ± 0.012.

Turning to TAAGAAAGGT, the switch fluorescence ratio is 1 ± 0.0053.

Regarding TAAGAAGGAA, the switch fluorescence ratio was 0.9918 ± 0.0091.

Regarding TAAGACAGGG, the switch fluorescence ratio stood at 1.02 ± 0.028.

Regarding TAAGACCAGT, the switch fluorescence ratio turned out to be 0.981 ± 0.034.

As to TAAGAGGCCT, the switch fluorescence ratio turned out to be 1.02 ± 0.031.

Consider TAAGAGTTGG, for which the switch fluorescence ratio came out at 0.999 ± 0.018.

TAAGATATTT: the switch fluorescence ratio is 0.9715 ± 0.0094.

For TAAGATTCGT, the switch fluorescence ratio amounted to 1 ± 0.031.

Take TAAGATTTTC: the switch fluorescence ratio is 0.973 ± 0.046.

TAAGCAATGT: the switch fluorescence ratio is 2.69 ± 1.1.

Regarding TAAGCAGTGG, the switch fluorescence ratio amounted to 1.02 ± 0.022.

TAAGCATTTC: the switch fluorescence ratio is 1.34 ± 0.11.

Take TAAGCCTGTT: the switch fluorescence ratio came out at 1 ± 0.021.

TAAGCGGCGC: the switch fluorescence ratio amounted to 0.989 ± 0.084.

Take TAAGCGGGAC: the switch fluorescence ratio worked out at 2.88 ± 2.

In the case of TAAGCGGGGC, the switch fluorescence ratio is 1.0163 ± 0.00063.

Take TAAGCTCTCG: the switch fluorescence ratio worked out at 0.9915 ± 0.0027.

Turning to TAAGCTTGTA, the switch fluorescence ratio is 1.01 ± 0.022.

For the sequence TAAGGAAAAT, the switch fluorescence ratio was found to be 0.998 ± 0.02.

As to TAAGGACATT, the switch fluorescence ratio came out at 1.03 ± 0.015.

For TAAGGACGGA, the switch fluorescence ratio turned out to be 1.01 ± 0.071.

TAAGGAGACA: the switch fluorescence ratio was 1.01 ± 0.045.

Take TAAGGAGGAG: the switch fluorescence ratio came to 1 ± 0.013.

For the sequence TAAGGAGGTC, the switch fluorescence ratio stood at 0.99 ± 0.031.

Regarding TAAGGAGTAG, the switch fluorescence ratio amounted to 0.991 ± 0.027.

As for TAAGGATGGG, the switch fluorescence ratio turned out to be 0.961 ± 0.032.

With TAAGGATGTA, the switch fluorescence ratio was determined as 1 ± 0.033.

In the case of TAAGGCTAGT, the switch fluorescence ratio was 0.969 ± 0.01.

For TAAGGCTTCG, the switch fluorescence ratio was found to be 0.96 ± 0.039.

For TAAGGGAAGC, the switch fluorescence ratio came out at 1.04 ± 0.04.

As to TAAGGGAGGT, the switch fluorescence ratio was 0.996 ± 0.044.

For TAAGGGAGTA, the switch fluorescence ratio was determined as 1.004 ± 0.0065.

Regarding TAAGGGCAAG, the switch fluorescence ratio came out at 1.01 ± 0.013.

As to TAAGGGGAAC, the switch fluorescence ratio amounted to 1.01 ± 0.03.

Regarding TAAGGGGCAT, the switch fluorescence ratio is 1.04 ± 0.093.

Take TAAGGGGCTT: the switch fluorescence ratio amounted to 0.992 ± 0.021.

In the case of TAAGGGGGCA, the switch fluorescence ratio stood at 1.01 ± 0.052.

Regarding TAAGGGGGTT, the switch fluorescence ratio was 1.01 ± 0.036.

For the sequence TAAGGGGTCG, the switch fluorescence ratio was 1.03 ± 0.046.

For TAAGGGGTGC, the switch fluorescence ratio stood at 1.06 ± 0.014.

For the sequence TAAGGGTATG, the switch fluorescence ratio worked out at 0.965 ± 0.066.

On to TAAGGGTGCT, for which the switch fluorescence ratio was 1.039 ± 0.0037.

For the sequence TAAGGGTGGG, the switch fluorescence ratio stood at 1 ± 0.043.

Consider TAAGGGTGGT, for which the switch fluorescence ratio was 1.01 ± 0.027.

TAAGGGTTAA: the switch fluorescence ratio stood at 0.994 ± 0.012.

On to TAAGGGTTG, for which the switch fluorescence ratio came out at 0.985 ± 0.058.

Consider TAAGGGTTTG, for which the switch fluorescence ratio amounted to 0.977 ± 0.036.

Take TAAGGTAAGT: the switch fluorescence ratio is 0.987 ± 0.021.

On to TAAGGTATGT, for which the switch fluorescence ratio is 1.03 ± 0.026.

TAAGGTGCTC: the switch fluorescence ratio was determined as 1.1 ± 0.01.

As for TAAGGTGTTT, the switch fluorescence ratio came out at 1.08 ± 0.076.

For TAAGGTTCTT, the switch fluorescence ratio was 1.01 ± 0.011.

TAAGGTTGCA: the switch fluorescence ratio stood at 0.983 ± 0.032.

With TAAGTAATTT, the switch fluorescence ratio came out at 1.01 ± 0.042.

For TAAGTACTTT, the switch fluorescence ratio stood at 0.977 ± 0.025.

For the sequence TAAGTAGTAT, the switch fluorescence ratio is 0.987 ± 0.017.

On to TAAGTATTG, for which the switch fluorescence ratio was 1.01 ± 0.017.

TAAGTCCTTT: the switch fluorescence ratio was determined as 0.9828 ± 0.0041.

With TAAGTGCGGG, the switch fluorescence ratio is 0.974 ± 0.0034.

TAAGTGGGAA: the switch fluorescence ratio stood at 1.01 ± 0.035.

Regarding TAAGTGGTGC, the switch fluorescence ratio is 1.05 ± 0.031.

Consider TAAGTGGTT, for which the switch fluorescence ratio was found to be 0.994 ± 0.011.
